# Measured values reported in US12134788B2, “Engineered prephenate dehydrogenases and arogenate dehydrogenases and methods of using the same” (Wisconsin Alumni Research Foundation, priority 2017, dated 2024).
# Changes are numbered by the printed parent chain. Numbers in names are those of the source.
# B1: Glycine max GmPDH1 variant N222D, SEQ ID NO: 2 (Glycine max; N222D) (protein)
# chain: MSTSSSSQSLKIGIVGFGNFGQFLAKTMIKQGHTLTATSRSDYSELCLQMGIHFFRDVSAFLTADIDVIVLCTSILSLSEVVGSMPLTSLKRPTLFVDVLSVKEHPRELLLRELPEDSDILCTHPMFGPQTAKNGWTDHTFMYDKVRIRDEVICSNFIQIFATEGCKMVQMSCEEHDRAAAKSQFITHTIGRTLGEMDIQSTPIDTKGFETLVKLKETMMRDSFDLYSGLFVYNRFARQELENLEHALHKVKETLMIQRTNGEQGHKRTES
# B2: Glycine max GmPDH1 variant N222A (Glycine max; N222A) (protein)
# chain: B1 chain with D222A
# B3: Glycine max GmPDH1 variant M219T/N222D (Glycine max; M219T/N222D) (protein)
# chain: B1 chain with M219T
# B4: Medicago truncatula MtPDH variant C220D, SEQ ID NO: 1 (Medicago truncatula; C220D) (protein)
# chain: MSSSSKSLKIGIVGFGTFGQFLANTMIKQGHTLTATSRTDYSQLCDQMGIHFFRDITAFLDADMDVILLCTSISSLSEVVGSMPLACLKRPTLFVDVLSVKEHPKNLLLKVLPEESDILCTHPMFGPVSGKNGWQNLTFMFDKVRIKDEVTCSKFLQIFASEGCKMVEMSCEEHDKAAAKSQFITHTIGRTLAEMDIKSTPIDTKGFQTLVELKKPVMGDSFDLYSGLFVYNRFARQELENLEHALHKVKEMLVQRIDEGQNPERTES
# B5: Glycine max GmncADH variant D218N (Glycine max; D218N) (protein)
# chain: MSTWSLKIGVVGFGSFGQFLAKTMIKQGHTLRATSRTDYSLLCLPMGIQFFRDVAAFLEADNDVILVCTSILSLSEVLSSMPLTCLKRSTLFVDVLSVKEHPRNLLIKVLPEESDILCTHPMFGPDSGKDGWQDLTFVYDKVRIRDEAICSSFLHIFASEGCRMLQMSCEEHDKIAAKSQFITHTIGRTLAEMDIKSTPIDTKGFHSLVQLKDTTIRNSFDLYSGLFLHNRFAVQELENLEHALHKVKEMLVQRKSEELGLEKTEC
# notes: D218N by site-directed mutagenesis
# B6: Medicago truncatula MtncADH variant D220C, SEQ ID NO: 10 (Medicago truncatula; D220C) (protein)
# chain: MSNSPSLKIGIVGFGSFGQFLAKTMIKQGHTLTATSRTDYSHTCLQLGIQFFRDVGTFIEANNDVILICTSIMSFTKVLSSMPLACLKKPTTLFVDVLSVKEHPREVLLRVLPEESDILCTHPMFGPESGKNGWKDLNFMYDKVRIHDEATCSNFLHIFASEGCKMLQMSCEEHDKIAAKSQFITHTIGRTLAEMDIESTPIDTKGFQTLTQLKNTTMRCSFDLYSGLFVHNRFAKQELENLQRALDRVKEMLVQRMREELGPEKD
# notes: D220C by site-directed mutagenesis
# B7: Solanum lycopersicum SolyncADH variant D224N (Solanum lycopersicum; D224N) (protein)
# chain: MSSSSSCQPKTLRIGIIGFGPFAQFLAKTMMKQGHCIHVTSRSDYSELCTDLGILFFRDMGAFLESDNEVIMISTSILSLSQVVESIPFNCLKRPTLFVDVLSVKEHPKDVLLRMMPRECDLLCTHPMFGPESGKDGWEDLTFMYDMVRIRDQPLCSSFLHIFSSEGCKMLEMTCEKHDRLAAQSQFLTHTIGRILSEMEVEPTPIDTKGFQKLVQVKESSVKNSFDLFSGLFIHNRFARQQMKNLEVALEKTKEKLQERSKELQDPIISKF
# notes: D224N by site-directed mutagenesis
# B8: Glycine max GmPDH1 variant M219T (Glycine max; M219T) (protein)
# chain: B1 chain with M219T, D222N
# B9: GmncADH: noncanonical arogenate dehydrogenase from soybean, wild-type (protein)
# chain: B5 chain with N218D
# modifications: GmncADH WT
# notes: noncanonical arogenate dehydrogenase from soybean, wild-type
# B10: MtncADH D220C: site-directed mutant of M. truncatula noncanonical ADH, Asp220 to Cys (protein)
# chain: B6 chain
# modifications: Synthetic: MtncADH D220C
# notes: site-directed mutant of M. truncatula noncanonical ADH, Asp220 to Cys
# Tests used:
# [1] = substrate: O=C(O)C(=O)CC1(C(=O)O)C=CC(O)C=C1; experiment: ADH and PDH assay: steady-state kinetics and Tyr inhibition, GmPDH1 N222D; format: biochemical, Glycine max (soybean); conditions: other: 0.5 mM NADP^+, pH 7.6, 37° C.
# Method: (§1) Kinetic parameters of purified recombinant proteins were determined from assays conducted at varying arogenate (19.5 μM-5 mM) and prephenate concentration (23.4 μM-6 mM). Standard assay conditions were 25 mM HEPES pH 7.6, 50 mM KCl and 10% (v/v) ethylene glycol, and 0.5 mM NADP^+ with varied substrate, concentrations. Reactions were initiated by addition of enzyme and incubated at 37° C. monitored every 10-15 seconds at […] using a microplate reader (Tecan Genios). Kinetic parameters were determined by fitting initial velocity data to the Michaelis-Menten equation using the Origin software (OriginLab).
# (§2) Arogenate was prepared by enzymatic conversion of prephenate (Sigma-Aldrich) as previously reported^56. For Tyr inhibition assays, Tyr was dissolved in a slightly basic solution (0.025 N NaOH) due to solubility issues, thus the concentration of lysis buffer was increased to 500 mM HEPES final concentration to buffer against the changes by addition of Tyr in the reaction. Reactions containing varying amounts of Tyr (10 μM-8 mM) with 0.5 mM NADP^+ and either 1 mM arogenate or 0.8 mM prephenate were monitored as above.
# [2] = substrate: N[C@@H](CC1(C(=O)O)C=CC(O)C=C1)C(=O)O; experiment: as above; format: biochemical, Glycine max (soybean); conditions: other: 0.5 mM NADP^+, pH 7.6, 37° C.
# Method: as §1, §2
# [3] = substrate: O=C(O)C(=O)CC1(C(=O)O)C=CC(O)C=C1; experiment: ADH and PDH assay: steady-state kinetics and Tyr inhibition, GmPDH1 N222A; format: biochemical, Glycine max (soybean); conditions: other: 0.5 mM NADP^+, pH 7.6, 37° C.
# Method: as §1, §2
# [4] = substrate: O=C(O)C(=O)CC1(C(=O)O)C=CC(O)C=C1; experiment: ADH and PDH assay: steady-state kinetics and Tyr inhibition, GmPDH1 M219T/N222D; format: biochemical, Glycine max (soybean); conditions: other: 0.5 mM NADP^+, pH 7.6, 37° C.
# Method: as §1, §2
# [5] = substrate: N[C@@H](CC1(C(=O)O)C=CC(O)C=C1)C(=O)O; experiment: as above; format: biochemical, Glycine max (soybean); conditions: other: 0.5 mM NADP^+, pH 7.6, 37° C.
# Method: as §1, §2
# [6] = substrate: O=C(O)C(=O)CC1(C(=O)O)C=CC(O)C=C1; experiment: ADH and PDH assay: steady-state kinetics and Tyr inhibition, MtPDH C220D; format: biochemical, Medicago truncatula; conditions: other: 0.5 mM NADP^+, pH 7.6, 37° C.
# Method: as §1, §2
# [7] = substrate: N[C@@H](CC1(C(=O)O)C=CC(O)C=C1)C(=O)O; experiment: as above; format: biochemical, Medicago truncatula; conditions: other: 0.5 mM NADP^+, pH 7.6, 37° C.
# Method: as §1, §2
# [8] = substrate: O=C(O)C(=O)CC1(C(=O)O)C=CC(O)C=C1; experiment: ADH and PDH assay: steady-state kinetics and Tyr inhibition, GmncADH D218N; format: biochemical, Glycine max (soybean); conditions: other: 0.5 mM NADP^+, pH 7.6, 37° C.
# Method: as §1, §2
# [9] = substrate: N[C@@H](CC1(C(=O)O)C=CC(O)C=C1)C(=O)O; experiment: as above; format: biochemical, Glycine max (soybean); conditions: other: 0.5 mM NADP^+, pH 7.6, 37° C.
# Method: as §1, §2
# [10] = substrate: O=C(O)C(=O)CC1(C(=O)O)C=CC(O)C=C1; experiment: ADH and PDH assay: steady-state kinetics and Tyr inhibition, MtncADH D220C; format: biochemical, Medicago truncatula; conditions: other: 0.5 mM NADP^+, pH 7.6, 37° C.
# Method: as §1, §2
# [11] = substrate: N[C@@H](CC1(C(=O)O)C=CC(O)C=C1)C(=O)O; experiment: as above; format: biochemical, Medicago truncatula; conditions: other: 0.5 mM NADP^+, pH 7.6, 37° C.
# Method: as §1, §2
# [12] = substrate: O=C(O)C(=O)CC1(C(=O)O)C=CC(O)C=C1; experiment: ADH and PDH assay: steady-state kinetics and Tyr inhibition, SolyncADH D224N; format: biochemical, Solanum lycopersicum (tomato); conditions: other: 0.5 mM NADP^+, pH 7.6, 37° C.
# Method: as §1, §2
# [13] = substrate: N[C@@H](CC1(C(=O)O)C=CC(O)C=C1)C(=O)O; experiment: as above; format: biochemical, Solanum lycopersicum (tomato); conditions: other: 0.5 mM NADP^+, pH 7.6, 37° C.
# Method: as §1, §2
# [14] = substrate: O=C(O)C(=O)CC1(C(=O)O)C=CC(O)C=C1; experiment: ADH and PDH assay: steady-state kinetics and Tyr inhibition, GmPDH1 M219T; format: biochemical, Glycine max (soybean); conditions: other: 0.5 mM NADP^+, pH 7.6, 37° C.
# Method: as §1, §2
# [15] = substrate: N[C@@H](CC1(C(=O)O)C=CC(O)C=C1)C(=O)O; experiment: as above; format: biochemical, Glycine max (soybean); conditions: other: 0.5 mM NADP^+, pH 7.6, 37° C.
# Method: as §1, §2
# [16] = Tyr inhibition assay of ADH activity (arogenate substrate); format: biochemical; conditions: Tyr up to 8 mM
# Method: as §2
# [17] = PDH assay: steady-state kinetics of purified recombinant plant enzymes with prephenate; format: biochemical; conditions: prephenate versus arogenate, NADP+ cofactor
# Excerpt: As used herein, a polypeptide may “have greater arogenate dehydrogenase activity than prephenate dehydrogenase activity” or “have greater prephenate dehydrogenase activity than arogenate dehydrogenase activity” when the steady-state kinetic parameters (kcat/Km (mM^−1s^−1)) for arogenate dehydrogenase activity are greater than the steady-state parameters (kcat/Km (mM^−1s^−1)) for prephenate dehydrogenase activity or when the steady-state kinetic parameters (kcat/Km (mM^−1s^−1)) for prephenate dehydrogenase activity are greater than the steady-state parameters (kcat/Km (mM^−1s^−1)) for arogenate dehydrogenase activity. Steady-state kinetic parameters may be measured using techniques similar to those described by the inventors in the Examples. Briefly, kinetic parameters of purified polypeptides can be determined from assays conducted at varying arogenate and prephenate concentrations. Standard assay conditions include 25 mM HEPES pH 7.6, 50 mM KCl and 10% (v/v) ethylene glycol, and 0.5 mM NADP^+ with varied substrate, concentrations. Reactions can be initiated by the addition of the polypeptide and incubated at 37° C. monitored every 10-15 seconds at A340nm using a microplate reader. Kinetic parameters may be determined by fitting initial velocity data to the Michaelis-Menten equation using the Origin software.
# as §1
molecule,measurement,setting,value
B1,Km,[1],7580 ± 1130 µM
same,kcat,[1],19.1 ± 1.4 s⁻¹
same,kcat/Km,[1],2520 M⁻¹ s⁻¹
same,Km,[2],530 ± 180 µM
same,kcat,[2],27.8 ± 3.5 s⁻¹
same,kcat/Km,[2],52400 M⁻¹ s⁻¹
B2,Km,[3],190 ± 40 µM
same,kcat,[3],6.6 ± 0.3 s⁻¹
same,kcat/Km,[3],34700 M⁻¹ s⁻¹
B3,Km,[4],1180 ± 120 µM
same,kcat,[4],2.5 ± 0.3 s⁻¹
same,kcat/Km,[4],2120 M⁻¹ s⁻¹
same,Km,[5],630 ± 180 µM
same,kcat,[5],29 ± 4.4 s⁻¹
same,kcat/Km,[5],46000 M⁻¹ s⁻¹
B4,Km,[6],1530 ± 90 µM
same,kcat,[6],0.5 ± 0.1 s⁻¹
same,kcat/Km,[6],327 M⁻¹ s⁻¹
same,Km,[7],270 ± 10 µM
same,kcat,[7],46.8 ± 4.2 s⁻¹
same,kcat/Km,[7],173000 M⁻¹ s⁻¹
B5,Km,[8],1980 ± 50 µM
same,kcat,[8],11.5 ± 0.5 s⁻¹
same,kcat/Km,[8],5810 M⁻¹ s⁻¹
same,Km,[9],740 ± 140 µM
same,kcat,[9],8.6 ± 0.2 s⁻¹
same,kcat/Km,[9],11600 M⁻¹ s⁻¹
B6,Km,[10],740 ± 30 µM
same,kcat,[10],10.1 ± 0.5 s⁻¹
same,kcat/Km,[10],13600 M⁻¹ s⁻¹
same,Km,[11],870 ± 30 µM
same,kcat,[11],7 ± 0.8 s⁻¹
same,kcat/Km,[11],8050 M⁻¹ s⁻¹
B7,Km,[12],2310 ± 100 µM
same,kcat,[12],2.4 ± 1 s⁻¹
same,kcat/Km,[12],1040 M⁻¹ s⁻¹
same,Km,[13],1340 ± 480 µM
same,kcat,[13],11.7 ± 0.2 s⁻¹
same,kcat/Km,[13],8730 M⁻¹ s⁻¹
B8,Km,[14],100 ± 20 µM
same,kcat,[14],30.3 ± 0.8 s⁻¹
same,kcat/Km,[14],303000 M⁻¹ s⁻¹
same,Km,[15],1550 ± 140 µM
same,kcat,[15],4.6 ± 0.3 s⁻¹
same,kcat/Km,[15],2970 M⁻¹ s⁻¹
B9,feedback inhibition by Tyr (in words),[16],sensitive to Tyr but with IC50 values in the mM range
same,substrate specificity: PDH versus ADH activity (in words),[17],only displayed activity with arogenate
B10,feedback inhibition by Tyr (in words),[16],significantly less sensitive to Tyr inhibition than the respective wild-type enzymes
same,substrate specificity: PDH versus ADH activity (in words),[17],reduced ADH activity and enhanced PDH activity
